Assay results taken from article PMC10783527.

Legend:
[1] = target: T1, NTHL1 (UniProt P78549 1-304); test: EMSA
T1 sequence: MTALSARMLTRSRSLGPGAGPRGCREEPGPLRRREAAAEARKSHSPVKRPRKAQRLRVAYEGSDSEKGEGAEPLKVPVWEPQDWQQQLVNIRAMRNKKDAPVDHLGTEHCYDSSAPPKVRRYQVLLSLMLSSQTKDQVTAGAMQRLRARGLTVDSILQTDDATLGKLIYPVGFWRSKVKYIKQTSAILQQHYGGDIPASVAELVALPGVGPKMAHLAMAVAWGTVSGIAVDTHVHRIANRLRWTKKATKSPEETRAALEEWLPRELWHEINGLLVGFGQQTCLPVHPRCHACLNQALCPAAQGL

[2] = target: BCL11B213-560 (UniProt Q9C0K0 213-560); test: EMSA
Chain of BCL11B213-560 (Q9C0K0 213-560): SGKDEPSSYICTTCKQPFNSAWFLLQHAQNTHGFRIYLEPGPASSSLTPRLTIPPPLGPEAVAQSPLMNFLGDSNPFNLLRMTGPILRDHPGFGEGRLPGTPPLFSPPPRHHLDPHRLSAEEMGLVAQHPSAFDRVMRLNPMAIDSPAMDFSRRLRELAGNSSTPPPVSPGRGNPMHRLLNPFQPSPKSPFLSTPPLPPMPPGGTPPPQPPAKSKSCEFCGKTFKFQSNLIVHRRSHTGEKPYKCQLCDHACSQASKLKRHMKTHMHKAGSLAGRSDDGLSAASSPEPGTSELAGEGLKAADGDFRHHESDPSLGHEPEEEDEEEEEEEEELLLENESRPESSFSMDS

B1: thymine glycol 32-mer duplex (dsDNA)
DNA 1: CCGGTGCATGACACTGTTACCTATCCTCAGCG
DNA 2: CGCTGAGGATAGGTAACAGTGTCATGCACCGG
modifications: thymine glycol at position 18 of strand 1 (printed X, written T)
[1]
  binding result: binds
[2]
  binding result: no binding
